Source: publication PMC4384708, “Molecular imaging of angiogenesis after myocardial infarction by ^111In-DTPA-cNGR and ^99mTc-sestamibi dual-isotope myocardial SPECT” (EJNMMI Research, 2015)
Bridge positions count the residues as written; N and C are the ends. Peptide text beside a SMILES is read from it. * marks the point of attachment. X1 = N[C@@H](CSC1CC(=O)N(CC2CCC(C(=O)*)CC2)C1=O)C(=O)NCCCC[C@@H](C(=O)O)N(CCN(CC(=O)O)CC(=O)O)CCN(CC(=O)O)CC(=O)O

Columns and labels:
[1] = in vivo; settings: 2 h p.i., gamma counting, mean ± SEM; for urinary excretion (urine radioactivity): i.v.; for tissue uptake at 2 h: male, Swiss, mouse, iv, total radioactivity
Experimental: In order to quantify the absolute uptake of ^111In-DTPA-cNGR in the different heart pieces, gamma counting was performed using an automated NaI(Tl) gamma counter (Wallac Wizard, Turku, Finland). Additionally, we dissected the vital organs of the mice to study overall biodistribution. The uptake of ^111In-DTPA-cNGR was determined 2 h post-injection (p.i.) for both MI (n ≥ 5) and control animals (n ≥ 4). Data were expressed as percentage of injected dose per gram tissue (%ID/g). Urinal excretion was expressed as %ID.

[2] = Matrigel plug model, ex vivo SPECT of explanted Matrigels; assay type: in vivo; settings: male, Swiss, mouse, total radioactivity, six mice, mean ± SEM
Experimental: (§1) MI was induced in 10- to 12-week old male Swiss mice by ligation of the left anterior descending coronary artery (LAD) (n = 7), as previously described. The angiogenesis imaging protocol was performed 7 days after the LAD ligation. A group of non-operated male Swiss mice (n = 5) was used as control. A variable number of animals were available for analysis per experiment. For SPECT scans, seven MI mice and five control mice were used while for biodistribution purposes ≥5 MI mice and ≥4 control mice were used. Furthermore, a group of six 10- to 12-week old male Swiss mice were bilaterally, subcutaneously implanted in the flanks with Matrigel (Table 1). […] All animals were held under the guidelines of the animal care facility (Maastricht University). All animal experiments were approved by the Committee for Animal Welfare of Maastricht University.
(§2) The PMOD 2.95 cardiac tool PCARD (PMOD Technologies, Zürich, Switzerland) was used to segment the heart in the 17-segment model according to the American Heart Association (AHA) guidelines. For both the ^99mTc-sestamibi and ^111In-DTPA-cNGR images, the uptake was measured for each segment and expressed as mean standardised uptake value (SUVmean) using equation (b).b SUV=SPECTcountspervoxel×CF/VvMBq/ml×Bodyweightg/InjecteddoseMBq

[3] = in vivo; settings: male, Swiss, mouse, heart, iv, mean ± S.E.M.
Experimental: as §1
Mice were anesthetised with isoflurane (induction 2.5%; maintenance; 1.5%), a catheter was placed in the tail vein and the animals were positioned in the micro-SPECT camera (MiLabs, Utrecht, The Netherlands).
U-SPECT-II reconstruction software version 2.38 (MiLabs, Utrecht, The Netherlands) was used to reconstruct images. ^99mTc and ^111In images were reconstructed by selecting the photopeak (PP) and background (BG) windows as indicated in Figure 1.
To allow quantification of radiotracer uptake in vivo, conversion factors (CFs) were determined for the 0.6-mm collimator system in a representative phantom (20 ml) for ^99mTc and/or ^111In. During the SPECT reconstruction, the total amount of counts was distributed over the different voxels, resulting in a counts/voxel expression for the average concentration of counts. Taking into account the voxel volume (Vv), the CFs are calculated using equation (a):a ConversionfactorMBq=ActivityconcentrationMBq/ml/SPECTcountspervoxel/Vvml
as §2
For body weight, we assumed that 1 g of body weight equalled 1 ml.

## CC(=O)N[C@H]1CSSC[C@@H](C(=O)NCC(=O)NCC(=O)N[C@@H](CCCCNC(=O)C2CCC(CN3C(=O)CC(SC[C@H](N)C(=O)NCCCC[C@@H](C(=O)O)N(CCN(CC(=O)O)CC(=O)O)CCN(CC(=O)O)CC(=O)O)C3=O)CC2)C(N)=O)NC(=O)[C@H](CCCNC(=N)N)NC(=O)CNC(=O)[C@H](CC(N)=O)NC1=O (stereo partly drawn) [^111In-DTPA-cNGR, metal not drawn] (Ac-CNGRCGGK(X1)-NH2; disulfide 1-5)
[1]; MI mice (n ≥ 5)
  urinary excretion (urine radioactivity): 82.29 ± 4.87 %ID
[1]; healthy control mice (n ≥ 4)
  urinary excretion (urine radioactivity): 92.5 ± 1.17 %ID
[1]; heart, apical region, uptake in the apical region of the heart, infarcted hearts, MI mice (n ≥ 5)
  tissue uptake at 2 h: 0.16 ± 0.0542 %ID/g
[1]; heart, apical region, uptake in the apical region of the heart, non-infarcted hearts, healthy control mice (n ≥ 4)
  tissue uptake at 2 h: 0.02 ± 0.005 %ID/g
[1]; kidney, kidney uptake, MI mice (n ≥ 5)
  tissue uptake at 2 h: 2.73 ± 0.42 %ID/g
[1]; kidney, kidney uptake, healthy control mice (n ≥ 4)
  tissue uptake at 2 h: 4.04 ± 0.41 %ID/g
[2]; explanted control (PBS) Matrigel plug, control (PBS) Matrigels
  SUV: 0.000222 SUV
[2]; explanted hFGF2-supplemented Matrigel plug, hFGF2-supplemented Matrigels
  SUV: 0.000824 SUV
[3]; AHA segment 5 (basal inferolateral), segment 5. Basal inferolateral, MI mice n = 7, 7 days after LAD ligation, in vivo SPECT
  SUV: 0.23 ± 0.03 SUV
[3]; AHA segment 5 (basal inferolateral), segment 5. Basal inferolateral, healthy control mice n = 5, in vivo SPECT
  SUV: 0.14 ± 0.04 SUV
[3]; segment 1 basal anterior, total radioactivity, healthy control mice n = 5, in vivo SPECT
  SUV: 0.16 ± 0.05 SUV
[3]; segment 1 basal anterior, total radioactivity, segment 1. Basal anterior, MI mice n = 7, 7 days after LAD ligation, in vivo SPECT
  SUV: 0.24 ± 0.04 SUV
[3]; segment 2 basal anteroseptal, total radioactivity, healthy control mice n = 5, in vivo SPECT
  SUV: 0.16 ± 0.05 SUV
[3]; segment 2 basal anteroseptal, total radioactivity, segment 2. Basal anteroseptal, MI mice n = 7, 7 days after LAD ligation, in vivo SPECT
  SUV: 0.21 ± 0.03 SUV
[3]; segment 3 basal inferoseptal, total radioactivity, healthy control mice n = 5, in vivo SPECT
  SUV: 0.13 ± 0.06 SUV
[3]; segment 3 basal inferoseptal, total radioactivity, segment 3. Basal inferoseptal, MI mice n = 7, 7 days after LAD ligation, in vivo SPECT
  SUV: 0.2 ± 0.02 SUV
[3]; segment 4 basal inferior, total radioactivity, healthy control mice n = 5, in vivo SPECT
  SUV: 0.15 ± 0.05 SUV
[3]; segment 4 basal inferior, total radioactivity, segment 4. Basal inferior, MI mice n = 7, 7 days after LAD ligation, in vivo SPECT
  SUV: 0.23 ± 0.03 SUV
[3]; segment 6 basal anterolateral, total radioactivity, healthy control mice n = 5, in vivo SPECT
  SUV: 0.18 ± 0.06 SUV
[3]; segment 6 basal anterolateral, total radioactivity, segment 6. Basal anterolateral, MI mice n = 7, 7 days after LAD ligation, in vivo SPECT
  SUV: 0.26 ± 0.04 SUV
[3]; segment 7 mid anterior, total radioactivity, healthy control mice n = 5, in vivo SPECT
  SUV: 0.15 ± 0.05 SUV
[3]; segment 7 mid anterior, total radioactivity, segment 7. Mid anterior, MI mice n = 7, 7 days after LAD ligation, in vivo SPECT
  SUV: 0.21 ± 0.02 SUV
[3]; segment 8 mid anteroseptal, total radioactivity, healthy control mice n = 5, in vivo SPECT
  SUV: 0.14 ± 0.06 SUV
[3]; segment 8 mid anteroseptal, total radioactivity, segment 8. Mid anteroseptal, MI mice n = 7, 7 days after LAD ligation, in vivo SPECT
  SUV: 0.2 ± 0.02 SUV
[3]; segment 9 mid inferoseptal, total radioactivity, healthy control mice n = 5, in vivo SPECT
  SUV: 0.12 ± 0.06 SUV
[3]; segment 9 mid inferoseptal, total radioactivity, segment 9. Mid inferoseptal, MI mice n = 7, 7 days after LAD ligation, in vivo SPECT
  SUV: 0.18 ± 0.03 SUV
[3]; segment 10 mid inferior, total radioactivity, healthy control mice n = 5, in vivo SPECT
  SUV: 0.12 ± 0.05 SUV
[3]; segment 10 mid inferior, total radioactivity, segment 10. Mid inferior, MI mice n = 7, 7 days after LAD ligation, in vivo SPECT
  SUV: 0.17 ± 0.03 SUV
[3]; segment 11 mid inferolateral, total radioactivity, healthy control mice n = 5, in vivo SPECT
  SUV: 0.11 ± 0.04 SUV
[3]; segment 11 mid inferolateral, total radioactivity, segment 11. Mid inferolateral, MI mice n = 7, 7 days after LAD ligation, in vivo SPECT
  SUV: 0.2 ± 0.03 SUV
[3]; segment 12 mid anterolateral, total radioactivity, healthy control mice n = 5, in vivo SPECT
  SUV: 0.15 ± 0.05 SUV
[3]; segment 12 mid anterolateral, total radioactivity, segment 12. Mid anterolateral, MI mice n = 7, 7 days after LAD ligation, in vivo SPECT
  SUV: 0.24 ± 0.01 SUV
[3]; segment 13 apical anterior, total radioactivity, healthy control mice n = 5, in vivo SPECT
  SUV: 0.11 ± 0.03 SUV
[3]; segment 13 apical anterior, total radioactivity, segment 13. Apical anterior, MI mice n = 7, 7 days after LAD ligation, in vivo SPECT
  SUV: 0.21 ± 0.02 SUV
[3]; segment 14 apical septal, total radioactivity, healthy control mice n = 5, in vivo SPECT
  SUV: 0.12 ± 0.04 SUV
[3]; segment 14 apical septal, total radioactivity, segment 14. Apical septal, MI mice n = 7, 7 days after LAD ligation, in vivo SPECT
  SUV: 0.2 ± 0.03 SUV
[3]; segment 15 apical inferior, total radioactivity, healthy control mice n = 5, in vivo SPECT
  SUV: 0.1 ± 0.03 SUV
[3]; segment 15 apical inferior, total radioactivity, segment 15. Apical inferior, MI mice n = 7, 7 days after LAD ligation, in vivo SPECT
  SUV: 0.18 ± 0.03 SUV
[3]; segment 16 apical lateral, total radioactivity, healthy control mice n = 5, in vivo SPECT
  SUV: 0.14 ± 0.04 SUV
[3]; segment 16 apical lateral, total radioactivity, segment 16. Apical lateral, MI mice n = 7, 7 days after LAD ligation, in vivo SPECT
  SUV: 0.22 ± 0.02 SUV
[3]; segment 17 apex, total radioactivity, healthy control mice n = 5, in vivo SPECT
  SUV: 0.1 ± 0.03 SUV
[3]; segment 17 apex, total radioactivity, segment 17. Apex, MI mice n = 7, 7 days after LAD ligation, in vivo SPECT
  SUV: 0.2 ± 0.03 SUV
